Experimental data reported in US20100136005A1.

Assays:
human CD18 (human) = human CD18 (human) (UniProt P05107); experiment: cell-based or functional assay
rhesus CD18 (rhesus) = rhesus CD18 (rhesus) (UniProt H9Z8N5); experiment: cell-based or functional assay

human CD18 (human), sequence (P05107 23-769): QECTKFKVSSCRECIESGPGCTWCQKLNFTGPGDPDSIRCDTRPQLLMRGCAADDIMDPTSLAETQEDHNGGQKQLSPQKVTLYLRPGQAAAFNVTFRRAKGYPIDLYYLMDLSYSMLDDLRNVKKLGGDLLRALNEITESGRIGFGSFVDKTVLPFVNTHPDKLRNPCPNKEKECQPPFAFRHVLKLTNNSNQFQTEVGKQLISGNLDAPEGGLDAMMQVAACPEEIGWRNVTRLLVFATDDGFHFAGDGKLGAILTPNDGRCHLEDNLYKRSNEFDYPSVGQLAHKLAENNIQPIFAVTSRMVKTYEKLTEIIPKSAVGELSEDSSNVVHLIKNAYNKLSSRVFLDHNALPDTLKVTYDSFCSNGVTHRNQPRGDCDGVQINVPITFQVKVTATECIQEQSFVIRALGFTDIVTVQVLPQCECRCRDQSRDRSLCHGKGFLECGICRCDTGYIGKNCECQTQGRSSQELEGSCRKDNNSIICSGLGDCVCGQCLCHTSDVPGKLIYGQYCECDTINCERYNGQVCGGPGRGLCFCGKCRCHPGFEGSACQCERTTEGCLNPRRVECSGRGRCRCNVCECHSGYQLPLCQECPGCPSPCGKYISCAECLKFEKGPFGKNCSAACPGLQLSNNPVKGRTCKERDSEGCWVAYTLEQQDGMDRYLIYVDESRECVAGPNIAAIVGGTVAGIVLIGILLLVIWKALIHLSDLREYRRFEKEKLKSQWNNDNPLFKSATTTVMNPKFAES

IC50 Value (nM), Rh/HuCD11a:HuK cell adhesion (human CD18 (human)): 1.4 nM
IC50 Value (nM), RhLy:HuICAM cell adhesion (rhesus CD18 (rhesus)): 1.2 nM
IC50 Value (nM), RhLy:HuK cell adhesion (rhesus CD18 (rhesus)): 1.6 nM
IC50 Value (nM), rhesus mixed lymphocyte response (rhesus CD18 (rhesus)): 30.4 nM
Substance: murine anti-human CD18 antibody MHM23
